Experimental data published in paper PMC4288923.

Assays:
[1] = molecular target: Slr1270 protein from Synechocystis 6803, refolded, C-terminal His tag (Synechocystis 6803); assay: SEC
[2] = molecular target: Slr1270 protein from Synechocystis 6803, refolded, C-terminal His tag (Synechocystis 6803); assay: SDS-PAGE without boiling
[3] = molecular target: Slr1270 protein from Synechocystis 6803, refolded, C-terminal His tag (Synechocystis 6803); assay: native gel or EMSA

Measured: stoichiometry N

Slr1270 protein from Synechocystis 6803, refolded, C-terminal His tag (natural protein)
3: all assays above
